T1: cynomolgus monkey FcγRIIa1 extracellular domain, His-tagged (cynomolgus monkey)
T1 construct: also called cyno FcγRIIa1; cynoFcgRIIa1; not shown: C-terminal His-tag
T1 chain: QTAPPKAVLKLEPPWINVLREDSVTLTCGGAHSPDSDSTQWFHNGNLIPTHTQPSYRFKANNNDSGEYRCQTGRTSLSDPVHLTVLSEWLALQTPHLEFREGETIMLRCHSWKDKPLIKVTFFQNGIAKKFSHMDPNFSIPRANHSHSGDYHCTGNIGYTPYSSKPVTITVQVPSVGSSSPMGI

T2: cynomolgus monkey FcγRIIa2 extracellular domain, His-tagged (cynomolgus monkey)
T2 construct: also called cyno FcγRIIa2; cynoFcgRIIa2; not shown: C-terminal His-tag
T2 chain: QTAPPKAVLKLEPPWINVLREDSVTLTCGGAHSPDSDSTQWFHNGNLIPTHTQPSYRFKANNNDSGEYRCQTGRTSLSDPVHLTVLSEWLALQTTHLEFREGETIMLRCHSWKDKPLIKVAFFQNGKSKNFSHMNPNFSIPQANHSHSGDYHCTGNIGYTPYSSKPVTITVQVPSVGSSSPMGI

T3: cynomolgus monkey FcγRIIb extracellular domain, His-tagged (cynomolgus monkey)
T3 construct: also called cyno FcγRIIb; cynoFcγRIIb; not shown: C-terminal His-tag
T3 chain: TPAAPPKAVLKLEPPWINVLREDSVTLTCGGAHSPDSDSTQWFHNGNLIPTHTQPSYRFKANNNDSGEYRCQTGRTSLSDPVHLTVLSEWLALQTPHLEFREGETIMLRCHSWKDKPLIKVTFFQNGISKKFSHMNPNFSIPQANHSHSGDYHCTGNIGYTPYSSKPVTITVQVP

T4: cynomolgus monkey FcγRIIIaS extracellular domain, His-tagged (cynomolgus monkey, UniProt Q8SPW2 21-206 at identity 1.00))
T4 construct: also called cyno FcγRIIIaS; cynoFcγRIIIaS; not shown: C-terminal His-tag
T4 chain: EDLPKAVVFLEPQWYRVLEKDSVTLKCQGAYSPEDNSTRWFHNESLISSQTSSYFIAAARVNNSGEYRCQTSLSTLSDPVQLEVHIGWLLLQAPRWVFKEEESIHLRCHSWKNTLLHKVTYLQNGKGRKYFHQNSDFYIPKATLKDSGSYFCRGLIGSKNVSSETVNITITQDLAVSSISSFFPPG

T5: human FcγRIIaH extracellular domain, His-tagged (human, UniProt P12318 34-217)
T5 construct: also called human FcγRIIa (type H); FcgRIIaH; not shown: C-terminal His-tag
T5 sequence: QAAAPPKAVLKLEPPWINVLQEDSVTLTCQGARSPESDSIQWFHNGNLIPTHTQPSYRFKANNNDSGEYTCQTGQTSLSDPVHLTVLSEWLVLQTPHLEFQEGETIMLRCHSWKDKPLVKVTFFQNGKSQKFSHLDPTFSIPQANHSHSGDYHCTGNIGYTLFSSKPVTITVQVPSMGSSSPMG

T6: human FcγRIIaR extracellular domain, His-tagged (human, UniProt P12318 34-217)
T6 construct: also called human FcγRIIa (type R); FcgRIIaR; not shown: C-terminal His-tag
T6 chain: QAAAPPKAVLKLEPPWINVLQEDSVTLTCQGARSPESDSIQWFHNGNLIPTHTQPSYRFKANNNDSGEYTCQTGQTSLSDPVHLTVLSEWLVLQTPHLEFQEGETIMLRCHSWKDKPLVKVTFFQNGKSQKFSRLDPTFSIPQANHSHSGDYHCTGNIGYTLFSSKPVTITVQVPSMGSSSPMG

T7: human FcγRIIb extracellular domain, His-tagged (human, UniProt P31994 43-217)
T7 construct: also called FcgRIIb (human); not shown: C-terminal His-tag
T7 sequence: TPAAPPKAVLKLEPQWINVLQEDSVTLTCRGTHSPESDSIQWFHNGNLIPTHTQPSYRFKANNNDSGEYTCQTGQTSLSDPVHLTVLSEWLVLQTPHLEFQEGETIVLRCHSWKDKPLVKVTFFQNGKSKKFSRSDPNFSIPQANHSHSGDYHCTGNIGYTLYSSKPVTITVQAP


Legend:
[1] = target: T1, cynomolgus monkey FcγRIIa1 …; experiment: SPR (BIACORE), captured antibody, FcgR as analyte
[2] = target: T2, cynomolgus monkey FcγRIIa2 …; experiment: SPR (BIACORE), captured antibody, FcgR as analyte
[3] = target: T3, cynomolgus monkey FcγRIIb extracellular …; experiment: SPR (BIACORE), captured antibody, FcgR as analyte
[4] = target: T4, cynomolgus monkey FcγRIIIaS …; experiment: SPR (BIACORE), captured antibody, FcgR as analyte
[5] = target: T5, human FcγRIIaH extracellular domain, …; experiment: SPR (BIACORE), captured antibody, FcgR as analyte
[6] = target: T6, human FcγRIIaR extracellular domain, …; experiment: SPR (BIACORE), captured antibody, FcgR as analyte
[7] = target: T7, human FcγRIIb extracellular domain, …; experiment: SPR (BIACORE), captured antibody, FcgR as analyte
[8] = target: T8, human FcγRIIIaV extracellular domain, His-tagged (human, UniProt P08637 17-208); experiment: SPR (BIACORE), captured antibody, FcgR as analyte
T8 construct: also called FcgRIIIaV; not shown: C-terminal His-tag

[9] = target: T5, human FcγRIIaH extracellular domain, …; experiment: SPR (BIACORE); KD of SG1 divided by KD of variant
[10] = target: T7, human FcγRIIb extracellular domain, …; experiment: SPR (BIACORE); KD of SG1 divided by KD of variant

T8 sequence (P08637 17-208 F176V): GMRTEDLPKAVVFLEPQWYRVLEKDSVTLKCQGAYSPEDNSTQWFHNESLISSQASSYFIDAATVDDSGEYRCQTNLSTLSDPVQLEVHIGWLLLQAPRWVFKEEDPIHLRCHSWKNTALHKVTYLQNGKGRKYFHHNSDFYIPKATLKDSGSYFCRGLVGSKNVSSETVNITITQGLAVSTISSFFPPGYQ

Binder	Kd [1] [nM]	Kd [2] [nM]	Kd [3] [nM]	Kd [4] [nM]	Kd [5] [nM]	Kd [6] [nM]	Kd [7] [nM]	Kd [8] [nM]	KD fold (SG1 = 1) [9] [fold]	KD fold (SG1 = 1) [10] [fold]
MS_M103205H795-SG1/M103202L889-SK1 (antibody, human IgG1, kappa, Parent antibody with heavy chain constant region SG1; also called MS1032LO06-SG1; copies: 2 + 2) heavy: not shown light: DIVMTQSPATLSLSPGERATLSCTSSQSVYHANWLSWFQQKPGQPPKLLIYWASTLAYGVPSRFSGSGSGTDFTLTISSLQPEDAATYYCAGGYGGGRYAFGQGTKVEIKRTVAAPSVFIFPPSDEQLKSGTASVVCLLNNFYPREAKVQWKVDNALQSGNSQESVTEQDSKDSTYSLSSTLTLSKADYEKHKVYACEVTHQGLSSPVTKSFNRGEC	3200	5100	1800	360	690	1100	4600	810	1	1
M103205H795-MY443/M103202L889-SK1 (antibody, human IgG1, kappa, copies: 2 + 2) heavy: QVTLKESGPVLVKPTETLTLTCTVSGIDLSHDDISWVRQAPGKGLEWVGIISYAGSTYYASWAKGRLTISKDTSKNQVVLTMTNMDPVDTATYYCARGVPAYSHGGDLWGQGTLVTVSSASTKGPSVFPLAPSSKSTSGGTAALGCLVKDYFPEPVTVSWNSGALTSGVHTFPAVLQSSGLYSLSSVVTVPSSSLGTQTYICNVNHKPSNTKVDKKVEPKSCDKTHTCPPCPAEELLTGPSVFLFPPKPKDTLMISRTPEVTCVVVDVSDEDPEVKFNWYVDGVEVHNAKTKPREEQYNSTYRVVSVLTVLHQDWLNGKEYKCKVSNKALPKPIEKTISKAKGQPREPQVYTLPPSREEMTKNQVSLTCLVKGFYPSDIAVEWESNGQPENNYKTTPPVLDSDGSFFLYSKLTVDKSRWQQGNVFSCSVMHEALHNHYTQKSLSLSP light: DIVMTQSPATLSLSPGERATLSCTSSQSVYHANWLSWFQQKPGQPPKLLIYWASTLAYGVPSRFSGSGSGTDFTLTISSLQPEDAATYYCAGGYGGGRYAFGQGTKVEIKRTVAAPSVFIFPPSDEQLKSGTASVVCLLNNFYPREAKVQWKVDNALQSGNSQESVTEQDSKDSTYSLSSTLTLSKADYEKHKVYACEVTHQGLSSPVTKSFNRGEC	4800	5000	1200	2600	530	640	2800	5900	1.3	1.6

Further binders by falling Kd [1], results first:

Kd [1] [nM]	Kd [2] [nM]	Kd [3] [nM]	Kd [4] [nM]	Kd [5] [nM]	Kd [6] [nM]	Kd [7] [nM]	Kd [8] [nM]	KD fold (SG1 = 1) [9] [fold]	KD fold (SG1 = 1) [10] [fold]	Binder
4400	4200	1100	2100	460	420	1800	4700	1.5	2.6	M103205H795-MY442/M103202L889-SK1 (antibody, human IgG1, kappa, copies: 2 + 2) heavy: QVTLKESGPVLVKPTETLTLTCTVSGIDLSHDDISWVRQAPGKGLEWVGIISYAGSTYYASWAKGRLTISKDTSKNQVVLTMTNMDPVDTATYYCARGVPAYSHGGDLWGQGTLVTVSSASTKGPSVFPLAPSSKSTSGGTAALGCLVKDYFPEPVTVSWNSGALTSGVHTFPAVLQSSGLYSLSSVVTVPSSSLGTQTYICNVNHKPSNTKVDKKVEPKSCDKTHTCPPCPADELLTGPSVFLFPPKPKDTLMISRTPEVTCVVVDVSDEDPEVKFNWYVDGVEVHNAKTKPREEQYNSTYRVVSVLTVLHQDWLNGKEYKCKVSNKALPKPIEKTISKAKGQPREPQVYTLPPSREEMTKNQVSLTCLVKGFYPSDIAVEWESNGQPENNYKTTPPVLDSDGSFFLYSKLTVDKSRWQQGNVFSCSVMHEALHNHYTQKSLSLSP light: DIVMTQSPATLSLSPGERATLSCTSSQSVYHANWLSWFQQKPGQPPKLLIYWASTLAYGVPSRFSGSGSGTDFTLTISSLQPEDAATYYCAGGYGGGRYAFGQGTKVEIKRTVAAPSVFIFPPSDEQLKSGTASVVCLLNNFYPREAKVQWKVDNALQSGNSQESVTEQDSKDSTYSLSSTLTLSKADYEKHKVYACEVTHQGLSSPVTKSFNRGEC
3800	3300	880	2600	360	650	2800	8100	1.9	1.6	M103205H795-MY441/M103202L889-SK1 (antibody, human IgG1, kappa, copies: 2 + 2) heavy: QVTLKESGPVLVKPTETLTLTCTVSGIDLSHDDISWVRQAPGKGLEWVGIISYAGSTYYASWAKGRLTISKDTSKNQVVLTMTNMDPVDTATYYCARGVPAYSHGGDLWGQGTLVTVSSASTKGPSVFPLAPSSKSTSGGTAALGCLVKDYFPEPVTVSWNSGALTSGVHTFPAVLQSSGLYSLSSVVTVPSSSLGTQTYICNVNHKPSNTKVDKKVEPKSCDKTHTCPPCPAAELLTGPSVFLFPPKPKDTLMISRTPEVTCVVVDVSDEDPEVKFNWYVDGVEVHNAKTKPREEQYNSTYRVVSVLTVLHQDWLNGKEYKCKVSNKALPKPIEKTISKAKGQPREPQVYTLPPSREEMTKNQVSLTCLVKGFYPSDIAVEWESNGQPENNYKTTPPVLDSDGSFFLYSKLTVDKSRWQQGNVFSCSVMHEALHNHYTQKSLSLSP light: DIVMTQSPATLSLSPGERATLSCTSSQSVYHANWLSWFQQKPGQPPKLLIYWASTLAYGVPSRFSGSGSGTDFTLTISSLQPEDAATYYCAGGYGGGRYAFGQGTKVEIKRTVAAPSVFIFPPSDEQLKSGTASVVCLLNNFYPREAKVQWKVDNALQSGNSQESVTEQDSKDSTYSLSSTLTLSKADYEKHKVYACEVTHQGLSSPVTKSFNRGEC
2200	1900	590	2000	210	440	2200	54000	3.3	2.1	M103205H795-MY265/M103202L889-SK1 (antibody, human IgG1, kappa, also called MS103205H795-MY265; copies: 2 + 2) heavy: QVTLKESGPVLVKPTETLTLTCTVSGIDLSHDDISWVRQAPGKGLEWVGIISYAGSTYYASWAKGRLTISKDTSKNQVVLTMTNMDPVDTATYYCARGVPAYSHGGDLWGQGTLVTVSSASTKGPSVFPLAPSSKSTSGGTAALGCLVKDYFPEPVTVSWNSGALTSGVHTFPAVLQSSGLYSLSSVVTVPSSSLGTQTYICNVNHKPSNTKVDKKVEPKSCDKTHTCPPCPAPELLTGPSVFLFPPKPKDTLMISRTPEVTCVVVDVSDEDPEVKFNWYVDGVEVHNAKTKPREEQYNSTYRVVSVLTVLHQDWLNGKEYKCKVSNKALPKPIEKTISKAKGQPREPQVYTLPPSREEMTKNQVSLTCLVKGFYPSDIAVEWESNGQPENNYKTTPPVLDSDGSFFLYSKLTVDKSRWQQGNVFSCSVMHEALHNHYTQKSLSLSP light: DIVMTQSPATLSLSPGERATLSCTSSQSVYHANWLSWFQQKPGQPPKLLIYWASTLAYGVPSRFSGSGSGTDFTLTISSLQPEDAATYYCAGGYGGGRYAFGQGTKVEIKRTVAAPSVFIFPPSDEQLKSGTASVVCLLNNFYPREAKVQWKVDNALQSGNSQESVTEQDSKDSTYSLSSTLTLSKADYEKHKVYACEVTHQGLSSPVTKSFNRGEC
